# Reference: PMC4928834
# Tests used:
# [1] = target: soluble part of FloA (flotillin A) with Strep-tag (B. subtilis) (UniProt P54466); assay: SEC; FloAstrep after Strep-Tactin on Superose 6 10/300 GL, 0.5 ml/min, 100 mM Tris-Cl, 150 mM NaCl, pH 7.5
# [2] = target: soluble part of FloA (flotillin A) with 6xHis tag (B. subtilis) (UniProt P54466); assay: SEC; FloA6His after Ni-NTA on HiLoad 26/600 Superdex 200 pg, 1.5 ml/min, 20 mM HEPES, 200 mM NaCl, 20 mM MgCl2, 20 mM KCl, pH 7.5
# [3] = system: P54466; assay: SEC; HMW fraction of FloA-Strep run again on gel filtration undiluted, 3 fold and 5 fold diluted; peak areas measured
substance,measurement,setting,value
soluble part of FloA (flotillin A) with Strep-tag (from UniProt P54466 56-331) (domain or fragment),stoichiometry N,[1],4
soluble part of FloA (flotillin A) with 6xHis tag (from UniProt P54466 56-331) (domain or fragment),stoichiometry N,[2],2
soluble part of FloA (flotillin A) with Strep-tag,percent of the protein in the HMW fraction (5-fold diluted),[3],82% are in the HMW fraction and 12% in the LMW peak
same,percent of the protein in the HMW fraction (undiluted or 3-fold diluted),[3],about 90% of the proteins are in the HMW fraction
same,percent of the protein in the LMW peak (5-fold diluted),[3],82% are in the HMW fraction and 12% in the LMW peak
